Results reported in IntAct's records for PubMed 22153509.

B1: Interleukin-5 receptor subunit alpha (Homo sapiens), Q01344-2 (parent)
chain: MIIVAHVLLILLGATEILQADLLPDEKISLLPPVNFTIKVTGLAQVLLQWKPNPDQEQRNVNLEYQVKINAPKEDDYETRITESKCVTILHKGFSASVRTILQNDHSLLASSWASAELHAPPGSPGTSIVNLTCTTNTTEDNYSRLRSYQVSLHCTWLVGTDAPEDTQYFLYYRYGSWTEECQEYSKDTLGRNIACWFPRTFILSKGRDWLAVLVNGSSKHSAIRPFDQLFALHAIDQINPPLNVTAEIEGTRLSIQWEKPVSAFPIHCFDYEVKIHNTRNGYLQIEKLMTNAFISIIDDLSKYDVQVRAAVSSMCREAGLWSEWSQPIYVGFSR

Variants of: B1
Conditions: with il5_human IL5, P05113
Sequence of il5_human IL5, P05113 (P05113 whole entry): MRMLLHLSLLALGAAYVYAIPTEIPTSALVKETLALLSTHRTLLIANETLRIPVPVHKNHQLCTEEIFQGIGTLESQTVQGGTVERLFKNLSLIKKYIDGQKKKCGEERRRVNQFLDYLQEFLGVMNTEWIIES

Variant	effect of a mutation on the interaction
R208K	decreasing interaction
M315A	decreasing interaction
D228A	disrupting interaction
